Laboratory results published in patent publication US20250376529A1 (Amgen, published 2025).

T1: Rhesus GIPR (rhesus, UniProt F7E1R9 22-466)
T1 sequence: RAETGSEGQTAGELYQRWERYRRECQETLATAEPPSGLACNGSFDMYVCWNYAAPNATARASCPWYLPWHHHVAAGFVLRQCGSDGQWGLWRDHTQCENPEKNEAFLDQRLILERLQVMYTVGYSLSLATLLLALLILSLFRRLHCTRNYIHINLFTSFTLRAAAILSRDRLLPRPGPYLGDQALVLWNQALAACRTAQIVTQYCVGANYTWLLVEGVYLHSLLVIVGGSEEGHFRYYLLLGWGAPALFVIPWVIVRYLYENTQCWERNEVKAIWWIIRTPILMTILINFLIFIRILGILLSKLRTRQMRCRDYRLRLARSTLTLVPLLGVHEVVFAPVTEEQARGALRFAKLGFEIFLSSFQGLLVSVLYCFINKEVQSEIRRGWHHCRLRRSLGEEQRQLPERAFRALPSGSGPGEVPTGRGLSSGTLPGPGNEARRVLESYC

B1: 5C2.007 (antibody, human IgG1, kappa, N297G, V domains shown)
VH: QVPLVQSGAEVKKPGASVKVSCKASGYTFTGYYIHWVRQAPGQGLEWMGWINPESGGTDYSQRFQGRFTMTRDTSISTAYMELNRLRSDDTAVYYCAREATIFGMVIVPFDYWGQGTLVTVSS
VL: not shown
B2: 13H12.002 (antibody, human IgG1, kappa, N297G, V domains shown)
VH: QVPLVQSGAEVKKPGASVKVSCKASGYTFTGYYIHWVRQAPGQGLEWMGWINPESGGTDYSQRFQGRVTMTRDTSISTAYMELSRLRSDDTAVYYCAREATIFGMVIVPFDYWGQGTLVTVSS
VL: not shown
B3: 13H12 (antibody, human IgG1, kappa, N297G, V domains shown)
VH: QVPLVQSGAEVKKPGASVKVSCKASGYTFTGYYIHWVRQAPGQGLEWMGWINPDSGGTDYSQRFQGRFTMTRDTSISTAYMELSRLRSDDTAVYYCAREATIFGMVIVPFDYWGQGTLVTVSS
VL: not shown
B4: 13H12.004 (antibody, human IgG1, kappa, N297G, V domains shown)
VH: QVPLVQSGAEVKKPGASVKVSCKASGYTFTGYYIHWVRQAPGQGLEWMGWINPDSGGTDYSQRFQGRVTMTRDTSISTAYMELSRLRSDDTAVYYCAREATIFGMVIVPFDYWGQGTLVTVSS
VL: not shown
B5: 13H12.006 (antibody, human IgG1, kappa, N297G, V domains shown)
VH: QVPLVQSGAEVKKPGASVKVSCKASGYTFTGYYIHWVRQAPGQGLEWMGWINPESGGTDYSQRFQGRVTMTRDTSISTAYMELSRLRSDDTAVYYCAREATIFGMVIVPFDYWGQGTLVTVSS
VL: not shown
B6: 13H12.003 (antibody, human IgG1, kappa, N297G, V domains shown)
VH: QVPLVQSGAEVKKPGASVKVSCKASGYTFTGYYIHWVRQAPGQGLEWMGWINPESGGTDYSQRFQGRFTMTRDTSISTAYMELSRLRSDDTAVYYCAREATIFGMVIVPFDYWGQGTLVTVSS
VL: not shown
B7: 12H11.002 (antibody, human IgG1, kappa, N297G, V domains shown)
VH: QVPLVQSGAEVKKPGASVKVSCKASGYTFTGYYIHWVRQAPGQGLEWMGWISPNQGETNYAQKFQDRVTMTRDTSISTAYMELSRLRSDDTAVYYCAREATIFGMLIVPFDYWGQGTLVTVSS
VL: DIVMTQSPDSLSVSLGERATINCKSSQSVLSSSNNKNYLAWYQQKPGQPPNLLIYWTSTRDSGVPDRFSGSGSGTDFTLTINSLQAEDVAVYYCQQYYRTPWTFGQGTKVEIKR
B8: 12H11 (antibody, human IgG1, kappa, N297G, V domains shown)
VH: QVPLVQSGAEVKKPGASVKVSCKASGYTFTGYYIHWVRQAPGQGLEWMGWISPNNGDTNYAQKFQDRVTMTRDTSISTAYMELSRLRSDDTAVYYCTREATIFGMLIVPFDYWGQGTLVTVSS
VL: DIVMTQSPDSLSVSLGERATINCKSSQSVLSSSNNKNYLAWYQQKPGQPPNLLIYWTSTRDSGVPDRFSGSGSGTDFTLTINSLQAEDVAVYYCQQYYRTPWTFGQGTKVEIKR
B9: 12H11.005 (antibody, human IgG1, kappa, N297G, V domains shown)
VH: QVPLVQSGAEVKKPGASVKVSCKASGYTFTGYYIHWVRQAPGQGLEWMGWISPNNGETNYAQKFQDRVTMTRDTSISTAYMELSRLRSDDTAVYYCAREATIFGMLIVPFDYWGQGTLVTVSS
VL: DIVMTQSPDSLSVSLGERATINCKSSQSVLSSSNNKNYLAWYQQKPGQPPNLLIYWTSTRDSGVPDRFSGSGSGTDFTLTINSLQAEDVAVYYCQQYYRTPWTFGQGTKVEIKR
B10: 11C1.002 (antibody, human IgG1, kappa, N297G, V domains shown)
VH: QVPLVQSGAEVKKPGASVKVSCKASGYTFTGYYIHWVRQAPGQGLVWMGWISPNSGETSYAQKFQDRVTMTRDTSISTAYMELSRLRSDDTAVYFCAREATIFGMLIVPFDYWGQGTLVTVSS
VL: not shown
B11: 11C1.007 (antibody, human IgG1, kappa, N297G, V domains shown)
VH: QVPLVQSGAEVKKPGASVKVSCKASGYTFTGYYIHWVRQAPGQGLVWMGWISPNSGETSYAQKFQDRVTMTRDTSISTAYMELSRLRSDDTAVYFCTREATIFGMLIVPFDYWGQGTLVTVSS
VL: DIVMTQSPDSLSVSLGERATINCKSSQSVLSSSNNKNYLAWYQQKPGQPPNLLIYWTSTRDSGVPDRFSGSGSGTDFTLTINSLQAEDVAVYYCQQYYRTPWTFGQGTKVEIKR
B12: 12H11.003 (antibody, human IgG1, kappa, N297G, V domains shown)
VH: QVPLVQSGAEVKKPGASVKVSCKASGYTFTGYYIHWVRQAPGQGLEWMGWISPNQGDTNYAQKFQDRVTMTRDTSISTAYMELSRLRSDDTAVYYCAREATIFGMLIVPFDYWGQGTLVTVSS
VL: DIVMTQSPDSLSVSLGERATINCKSSQSVLSSSNNKNYLAWYQQKPGQPPNLLIYWTSTRDSGVPDRFSGSGSGTDFTLTINSLQAEDVAVYYCQQYYRTPWTFGQGTKVEIKR
B13: 11C1.005 (antibody, human IgG1, kappa, N297G, V domains shown)
VH: QVPLVQSGAEVKKPGASVKVSCKASGYTFTGYYIHWVRQAPGQGLVWMGWISPNSGETSYAQKFQDRVTMTRDTSISTAYMELSRLRSDDTAVYFCTREATIFGMLIVPFDYWGQGTLVTVSS
VL: not shown
B14: 11C1.006 (antibody, human IgG1, kappa, N297G, V domains shown)
VH: QVPLVQSGAEVKKPGASVKVSCKASGYTFTGYYIHWVRQAPGQGLVWMGWISPNSGDTSYAQKFQDRVTMTRDTSISTAYMELSRLRSDDTAVYFCTREATIFGMLIVPFDYWGQGTLVTVSS
VL: not shown
B15: 11C1.003 (antibody, human IgG1, kappa, N297G, V domains shown)
VH: QVPLVQSGAEVKKPGASVKVSCKASGYTFTGYYIHWVRQAPGQGLVWMGWISPNSGDTSYAQKFQDRVTMTRDTSISTAYMELSRLRSDDTAVYFCAREATIFGMLIVPFDYWGQGTLVTVSS
VL: not shown
B16: 11C1 (antibody, human IgG1, kappa, N297G, V domains shown)
VH: QVPLVQSGAEVKKPGASVKVSCKASGYTFTGYYIHWVRQAPGQGLVWMGWISPNSGDTSYAQKFQDRVTMTRDTSISTAYMELSRLRSDDTAVYFCTREATIFGMLIVPFDYWGQGTLVTVSS
VL: DIVMTQSPDSLSVSLGERATINCKSSQSVLSSSNNKNYLAWYQQKPGQPPNLLIYWTSTRDSGVPDRFSGSGSGTDFTLTINSLQAEDVAVYYCQQYYRTPWTFGQGTKVEIKR
B17: 11C1.008 (antibody, human IgG1, kappa, N297G, V domains shown)
VH: QVPLVQSGAEVKKPGASVKVSCKASGYTFTGYYIHWVRQAPGQGLVWMGWISPNSGDTSYAQKFQDRVTMTRDTSISTAYMELSRLRSDDTAVYFCAREATIFGMLIVPFDYWGQGTLVTVSS
VL: DIVMTQSPDSLSVSLGERATINCKSSQSVLSSSNNKNYLAWYQQKPGQPPNLLIYWTSTRDSGVPDRFSGSGSGTDFTLTINSLQAEDVAVYYCQQYYRTPWTFGQGTKVEIKR
B18: 11C1.004 (antibody, human IgG1, kappa, N297G, V domains shown)
VH: QVPLVQSGAEVKKPGASVKVSCKASGYTFTGYYIHWVRQAPGQGLVWMGWISPNSGETSYAQKFQDRVTMTRDTSISTAYMELSRLRSDDTAVYFCAREATIFGMLIVPFDYWGQGTLVTVSS
VL: DIVMTQSPDSLSVSLGERATINCKSSQSVLSSSNNKNYLAWYQQKPGQPPNLLIYWTSTRDSGVPDRFSGSGSGTDFTLTINSLQAEDVAVYYCQQYYRTPWTFGQGTKVEIKR
B19: 4H9.004 (antibody, human IgG1, kappa, N297G, V domains shown)
VH: QVQLVESGGGVVQPGRSLRLSCAASGFTFSYFGMHWVRQAPGKGLEWVAVIWYDGSNKYYADSVKGRFTISRDNSKNTLYLQMNSLRAEDTAVYYCARDGTIFGVLLGDYWGQGTLVTVSS
VL: DIQMTQSPSSLSASVGDRVTITCRASQGIRNELGWYQQKPGKAPKRLIYGASSLQSGVPSRFSGSGSGTEFTLTISSLQPEDFVTYYCLQHNSYPFTFGPGTKVDVKR
B20: 18E3.005 (antibody, human IgG1, kappa, N297G)
heavy: not shown
light: EIVLTQSPGTLSLSPGERATLSCRASQSISYSYLAWYQQKPGQAPRLLIYGASSRATGIPDRFSGSGSGTDFTLTISRLEPDDFAVYYCQQYGSSPLTFGGGTKVEIKRTVAAPSVFIFPPSDEQLKSGTASVVCLLNNFYPREAKVQWKVDNALQSGNSQESVTEQDSKDSTYSLSSTLTLSKADYEKHKVYACEVTHQGLSSPVTKSFNRGEC
B21: 18E3.006 (antibody, human IgG1, kappa, N297G)
heavy: not shown
light: EIVLTQSPGTLSLSPGERATLSCRASQSISYSYLAWYQQKPGQAPRLLIYGASSRATGIPDRFSGSGSGTDFTLTISRLEPDDFAVYYCQQYGSSPLTFGGGTKVEIKRTVAAPSVFIFPPSDEQLKSGTASVVCLLNNFYPREAKVQWKVDNALQSGNSQESVTEQDSKDSTYSLSSTLTLSKADYEKHKVYACEVTHQGLSSPVTKSFNRGEC
B22: 18E3.008 (antibody, human IgG1, kappa, N297G)
heavy: not shown
light: EIVLTQSPGTLSLSPGERATLSCRASQSISYSYLAWYQQKPGQAPRLLIYGASSRATGIPDRFSGSGSGTDFTLTISRQEPDDFAVYYCQQYGSSPLTFGGGTKVEIKRTVAAPSVFIFPPSDEQLKSGTASVVCLLNNFYPREAKVQWKVDNALQSGNSQESVTEQDSKDSTYSLSSTLTLSKADYEKHKVYACEVTHQGLSSPVTKSFNRGEC
B23: 18E3.007 (antibody, human IgG1, kappa, N297G)
heavy: not shown
light: EIVLTQSPGTLSLSPGERATLSCRASQSISYSYLAWYQQKPGQAPRLLIYGASSRATGIPDRFSGSGSGTDFTLTISRQEPDDFAVYYCQQYGSSPLTFGGGTKVEIKRTVAAPSVFIFPPSDEQLKSGTASVVCLLNNFYPREAKVQWKVDNALQSGNSQESVTEQDSKDSTYSLSSTLTLSKADYEKHKVYACEVTHQGLSSPVTKSFNRGEC

The binders below were run against T1, Rhesus GIPR (assay: cell-based or functional assay).

B1 and B2 are within 1.5-fold of each other in “Rhesus GIPR CAMP Assay (Conc. mAb @ 60% Inhibition in nM)” value: 0.66 nM for the first, 0.95 nM for the second.

B3 and B4 are within 1.5-fold of each other in “Rhesus GIPR CAMP Assay (Conc. mAb @ 60% Inhibition in nM)” value: 0.67 nM for the first, 0.56 nM for the second.

B5 and B6 are within 1.5-fold of each other in “Rhesus GIPR CAMP Assay (Conc. mAb @ 60% Inhibition in nM)” value: 0.92 nM for the first, 0.83 nM for the second.

First: B7
Second: B8
The “Rhesus GIPR CAMP Assay (Conc. mAb @ 60% Inhibition in nM)” value of the first is 1.8-fold lower: 0.45 nM for the first, 0.79 nM for the second.

First: B9
Second: B10
The “Rhesus GIPR CAMP Assay (Conc. mAb @ 60% Inhibition in nM)” value of the first is 1.6-fold higher: 0.61 nM for the first, 0.39 nM for the second.

B11 and B12 are within 1.5-fold of each other in “Rhesus GIPR CAMP Assay (Conc. mAb @ 60% Inhibition in nM)” value: 0.4 nM for the first, 0.6 nM for the second.

B13 and B14 are within 1.5-fold of each other in “Rhesus GIPR CAMP Assay (Conc. mAb @ 60% Inhibition in nM)” value: 0.42 nM for the first, 0.51 nM for the second.

B15 and B16 are within 1.5-fold of each other in “Rhesus GIPR CAMP Assay (Conc. mAb @ 60% Inhibition in nM)” value: 0.48 nM for the first, 0.65 nM for the second.

B17 and B18 are within 1.5-fold of each other in “Rhesus GIPR CAMP Assay (Conc. mAb @ 60% Inhibition in nM)” value: 0.43 nM for the first, 0.33 nM for the second.

Going from B19 to B20, the “Rhesus GIPR CAMP Assay (Conc. mAb @ 60% Inhibition in nM)” value falls from 0.43 nM to 0.1 nM (4.3-fold).

Compared with B21, B22 is 3.1-fold higher in “Rhesus GIPR CAMP Assay (Conc. mAb @ 60% Inhibition in nM)” value: 0.12 nM for the first, 0.37 nM for the second.

In the case of B23, the “Rhesus GIPR CAMP Assay (Conc. mAb @ 60% Inhibition in nM)” value is reported as 0.24 nM.
